From US20030236190A1 (published 2003)
Where two headings read alike, the source gives them in different places. One block for each binder: values may come before it. Positions of bridges follow the written chain, without caps; N, C: chain ends. No end group written: not given here.

How the values were obtained:
[1] = molecular target: T1, Human insulin receptor (HIR), purified from transfected cells after solubilization with Triton X-100 (human, UniProt P06213 28-1382, limits assumed); assay: competition with 125I-insulin for solubilised HIR, PEG precipitation; Kd calculated from the competition curve
T1 construct: Detergent-solubilised receptor

[2] = molecular target: T1, Human insulin receptor (HIR), purified …; assay: as above; remark: listed apart in the source
[3] = molecular target: T1, Human insulin receptor (HIR), purified …; assay: as above; remark: listed apart in the source
[4] = molecular target: T2, human insulin receptor (HIR) (human, UniProt P06213 28-1382, limits assumed); assay: Kd(HIR), insulin competition
[5] = molecular target: human IGF-1R on FDCP-2 cells (human, UniProt P08069 31-1367); assay: cell-based or functional assay
[6] = molecular target: T2, human insulin receptor (HIR); assay: cell-based or functional assay
[7] = molecular target: insulin receptor (IR) on mouse free fat cells (mouse, UniProt P15208 28-1372); assay: cell-based or functional assay
[8] = molecular target: T2, human insulin receptor (HIR); assay: 125I-insulin competition, solubilised HIR
[9] = molecular target: human IGF-1 receptor (HIGF-1R) (human, UniProt P08069 31-1367); assay: 125I-IGF-1 competition, solubilised HIGF-1R
[10] = molecular target: T3, soluble human insulin receptor-immunoglobulin heavy chain chimera (sIR-Fc) (human, UniProt P06213 28-956, limits assumed, Eu3+ label (LANCE) in the TR-FRET assays); assay: FP competition vs FITC-RP9, sIR-Fc
T3 construct: extracellular domain; construct of Bass et al., 1996; also called HIR-immunoglobulin heavy chain chimera; not shown: immunoglobulin heavy chain constant domains

[11] = molecular target: T2, human insulin receptor (HIR); assay: RRA, 125I-insulin competition, HIR
[12] = molecular target: T3, soluble human insulin …; assay: TR-FRET competition vs b-S175, sIR-Fc
Procedure: (§1) The TR-FRET assays were performed in a 384-well white microplate with a final volume of 30 μl.

[13] = molecular target: T4, soluble HIR ectodomain (sIR) (human, UniProt P06213-2 28-944, limits assumed); assay: FP competition vs FITC-RP9, sIR
T4 construct: extracellular domain
Source text: Fluorescence polarization assays (FP) were used for peptide competition studies.

[14] = molecular target: T3, soluble human insulin …; assay: TR-FRET competition vs b-RP9, sIR-Fc
Source text: Time-resolved fluorescence resonance energy transfer assays (TR-FRET) were used for peptide competition studies.
This was used to determine IC₅₀ values.

[15] = molecular target: T5, human insulin receptor (HIR), purified from transfected cells after solubilization with Triton X-100 (human, UniProt P06213 28-1382, limits assumed); assay: 125I-insulin competition on HIR
T5 construct: also called WGA-purified recombinant human insulin receptor

[16] = molecular target: T3, soluble human insulin …; assay: TR-FRET competition vs b-S175, sIR-Fc (column as given)
Procedure: as §1

insulin receptor (IR) on mouse free fat cells, sequence (P15208 28-1372): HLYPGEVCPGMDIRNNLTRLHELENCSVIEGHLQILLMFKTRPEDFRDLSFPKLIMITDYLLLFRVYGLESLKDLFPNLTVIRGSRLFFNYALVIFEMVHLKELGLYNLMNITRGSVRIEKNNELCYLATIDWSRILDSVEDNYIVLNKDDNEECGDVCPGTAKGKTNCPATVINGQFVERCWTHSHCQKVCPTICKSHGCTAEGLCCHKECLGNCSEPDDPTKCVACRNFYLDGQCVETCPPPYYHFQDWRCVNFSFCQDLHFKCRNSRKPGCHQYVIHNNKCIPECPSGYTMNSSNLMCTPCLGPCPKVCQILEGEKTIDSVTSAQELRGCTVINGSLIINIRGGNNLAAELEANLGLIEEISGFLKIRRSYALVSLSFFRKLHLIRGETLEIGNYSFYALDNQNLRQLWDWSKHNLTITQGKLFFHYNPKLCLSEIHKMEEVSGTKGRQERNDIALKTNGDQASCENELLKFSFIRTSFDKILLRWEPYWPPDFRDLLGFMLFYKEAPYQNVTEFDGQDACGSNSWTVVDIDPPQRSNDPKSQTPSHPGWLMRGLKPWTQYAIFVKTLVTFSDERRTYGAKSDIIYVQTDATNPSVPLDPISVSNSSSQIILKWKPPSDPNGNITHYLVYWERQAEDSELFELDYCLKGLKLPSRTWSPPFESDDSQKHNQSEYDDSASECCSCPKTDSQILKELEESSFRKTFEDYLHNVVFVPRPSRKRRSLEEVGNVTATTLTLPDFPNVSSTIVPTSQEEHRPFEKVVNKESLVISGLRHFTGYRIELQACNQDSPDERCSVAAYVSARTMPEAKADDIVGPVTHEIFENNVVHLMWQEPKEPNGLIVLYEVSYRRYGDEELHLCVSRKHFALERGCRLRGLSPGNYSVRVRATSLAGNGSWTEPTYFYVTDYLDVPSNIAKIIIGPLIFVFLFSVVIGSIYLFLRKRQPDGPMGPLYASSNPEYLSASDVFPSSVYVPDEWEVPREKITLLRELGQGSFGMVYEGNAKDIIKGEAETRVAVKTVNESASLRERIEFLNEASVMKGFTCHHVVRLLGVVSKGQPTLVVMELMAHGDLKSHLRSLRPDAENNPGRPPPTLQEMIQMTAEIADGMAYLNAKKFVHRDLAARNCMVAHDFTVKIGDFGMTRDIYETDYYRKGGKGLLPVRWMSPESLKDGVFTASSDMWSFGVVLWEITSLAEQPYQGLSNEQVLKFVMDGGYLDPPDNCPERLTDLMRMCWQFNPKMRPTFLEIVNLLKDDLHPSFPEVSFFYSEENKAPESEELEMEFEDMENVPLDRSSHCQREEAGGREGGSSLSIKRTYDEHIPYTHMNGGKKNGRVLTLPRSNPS

Kd [1]: 91 nM
Kd [2]: 91 nM
B1: S395 (peptide)
peptide: GSLDESFYDWFERQL
notes: Synthetic truncated RP9 monomer peptide

Kd [3]: 630 nM
Kd [2]: 630 nM
B2: S371 (peptide)
peptide: GSLDESFYDWFERQLGKK
notes: Synthetic RP9 monomer peptide; also called RP9; S371 (RP9)

Kd [4]: 8300 nM
B3: 437 (other, not shown: large carriers; small tags and cut ends)
chain: NNNNLGIEGRISEFIEGRAQPAMAFHENFYDWFVRQVSAAAGAPVPYPDPLEPRAA
notes: MBP fusion

IGF-1 agonist (proliferation) assay, FDCP-2 cells; ED50 [5]: ~10000 nM
B4: G33 (peptide)
peptide: GIISQSCPESFYDWFAGQVSDPWWCW

Kd [4]: 410 nM
B5: 436 (other, not shown: large carriers; small tags and cut ends)
chain: NNNNLGIEGRISEFIEGRAQPAMAFHENFYDWFVRQVSGGSGGSGGSFHENFYDWFVRQVSAAAGAPVPYPDPLEPRAA
notes: MBP fusion

Kd [1]: 91 nM
Kd [2]: 91 nM
B6: S399 (peptide)
peptide: ESFYDWFERQL
notes: as for B1

Kinase Pot. [6]: 110 nM
FFC Pot. [7]: 10 nM
Kd [8]: 0.53 nM
B7: 539 (peptide)
peptide: MADYKDDDDKWLDQEWAWVQCEVYGRGCPSGGSGGSGSLDESFYDWFERQLGKKAAAGAPVPYPDPLEPRPG
notes: recombinant dimer with tags at both ends; also called D8-6aa-RP9

Kd [3]: 180 nM
B8: S374 (peptide)
peptide: XGSLDESFYDWFERQLGKK
chain: XGSLDESFYDWFERQLGKK
modifications: not fully specified; the two chains are joined N-terminus to N-terminus through chemical linker 17 of Table 3 (Table 7 prints an N-terminal Ald group on each chain)
notes: Synthetic RP9 homodimer (Site 1-Site 1, N-N)

IGF-1 agonist (proliferation) assay, FDCP-2 cells; ED50 [5]: ~2000 nM
B9: D815 (peptide)
peptide: WLDQERAWLWCEISGRGCLS
modifications: disulfide 11-18 (inferred)

Kd [9]: 710 nM
FFC Pot. [7]: 10 nM
Kd [8]: 0.08 nM
B10: 538 (peptide)
peptide: MADYKDDDDKGSLDESFYDWFERQLGKKGGSGGSGGSGGSWLDQEWAWVQCEVYGRGCPSAAAGAPVPYPDPLEPRPG
notes: recombinant dimer with tags at both ends; also called RP9-12aa-D8

Kd [1]: 320 nM
B11: S386 (peptide)
peptide: GSLDESFYDWFERQLG
notes: also called RP9 minus terminal lysines

Kd [4]: 39 nM
B12: 464 (other, not shown: large carriers; small tags and cut ends)
chain: NNNNLGIEGRISEFIEGRDYKDDDDKFHENFYDWFVRQVSAAGAPVPYPDPLEPRAA
notes: MBP fusion

IC50 [10]: 10 nM
IC50 [11]: 44 nM
IC50 [12]: 6 nM
IC50 [13]: 0.03 nM
IC50 [14]: 42 nM
B13: RP9 (peptide)
peptide: GSLDESFYDWFERQLGKK
modifications: also: biotin (b-RP9) or fluorescein (FITC-RP9) label where used, site not given here
notes: also called S371; b-RP9

Kinase Pot. [6]: 1000 nM
FFC Pot. [7]: 2 nM
B14: 535 (peptide)
peptide: MADYKDDDDKGSLDESFYDWFERQLGKKGGSGGSGGSGGSGSLDESFYDWFERQLGKKAAAGAPVPYPDPLEPRPG

Kd [9]: 980 nM
FFC Pot. [7]: 10 nM
Kd [8]: 0.092 nM
B15: 537 (peptide)
peptide: MADYKDDDDKGSLDESFYDWFERQLGKKGGSGGSWLDQEWAWVQCEVYGRGCPSAAAGAPVPYPDPLEPRPG
notes: recombinant dimer with tags at both ends; also called RP9-6aa-D8

Kd [4]: 960 nM
B16: 463 (other, not shown: large carriers; small tags and cut ends)
chain: NNNNLGIEGRISEFIEGRAQPAMAFHENFYDWFVRQVSGGSFHENFYDWFVRQVSAAAGAPVPYPDPLEPRAA
notes: MBP fusion

IC50 [12]: 10 nM
IC50 [13]: 0.5 nM
B17: S380 (peptide)
peptide: EEDWLQRNANFYDWFVAELX
modifications: C-terminal Lig'; copies joined C-C by chemical linker 9
notes: also called (EE-short-S175-Lig)2-9

Kinase Pot. [6]: 1400 nM
FFC Pot. [7]: 3 nM
Kd [8]: 25 nM
B18: 521 (peptide)
peptide: MADYKDDDDKGSLDESFYDWFERQLGKKGGSGGSGSLDESFYDWFERQLGKKAAAGAPVPYPDPLEPRPG
notes: recombinant dimer with tags at both ends (FLAG, E-Tag); also called RP9-6aa-RP9

Kd [1]: 81 nM
Kd [2]: 81 nM
B19: S394 (peptide)
peptide: GSLDESFYDWFERQ
notes: as for B1

Kd [4]: 2000 nM
B20: 435 (other, not shown: large carriers; small tags and cut ends)
chain: NNNNLGIEGRISEFIEGRAQPAMAFHENFYDWFVRQVSGGSFHENFYDWFVRQVSGGSFHENFYDWFVRQVSAAAGAPVPYPDPLEPRAA
notes: MBP fusion

binding result [15]: binds
B21: S374: 17-(Ald-GSLDESFYDWFERQLGKK)2 (peptide)
peptide: XGSLDESFYDWFERQLGKK
modifications: N-terminal Ald (aldehyde from periodate oxidation of a serine); the two chains joined N-N through chemical linker 17 of Table 3
notes: also called synthetic RP9 homodimer S374

IC50 [10]: 207 nM
IC50 [11]: 2200 nM
IC50 [16]: 755 nM
B22: E8 (D120) (peptide)
peptide: GGTVWPGYEWLRNA

Kd [1]: 630 nM
Kd [2]: 630 nM
B23: S400 (peptide)
peptide: ESFYDWFERQ
notes: as for B1

IGF-1 agonist (proliferation) assay, FDCP-2 cells; ED50 [5]: > 10000 nM
B24: 20E2 (peptide)
peptide: DYKDFYDAIDQLVRGSARAGGTRD

IC50 [10]: 50 nM
IC50 [11]: 700 nM
IC50 [12]: 410 nM
IC50 [13]: 37 nM
IC50 [14]: 1630 nM
B25: H2C (peptide)
peptide: FHENFYDWFVQRVSKK
notes: also called D117
